In patent US20140134169A1, “Methods of Treating Ovarian Cancer with Dll4 Antagonists” (Regeneron Pharmaceuticals, Inc., priority 2012, published 2014):

Experiments:
[1] = system: Hey1 gene expression in Colo205 human colorectal tumor cells; assay: Hey1 gene expression in Colo205 tumors in humanized Dll4 SCID mice (microarray); assay type: in vivo
Procedure: The effect of anti-hDll4 antibody on differential gene expression in tumors was studied in humanized Dll4 SCID mice implanted with human Colo205 colorectal tumor cells. Briefly, Male and female humanized Dll4 SCID mice were subcutaneously implanted with 2×10^6 Colo205 cells per mouse. When the tumors reached ˜150 mm^3, mice (4 animals per group) were treated with a single dose of REGN421 at 0.5, 5 or 15 mg/kg, or of hFc control at 15 mg/kg. The tumors were excised at 5 hrs, 10 hrs, 24 hrs, 72 hrs and 7 days after the treatment and stored in RNA later stabilization reagent (Qiagen). Tumor RNA was purified using the RNeasy® Midi Kit (Qiagen). Tissue was homogenized in lysis buffer containing […] in a mixer mill, loaded onto the columns and unbound contaminants washed through. DNase I digestion was performed on the column and RNA was eluted in RNase-free water. Cyanine 3 (Cy3)-CTP was incorporated into amplified cRNA from 500 ng of total RNA using the Quick Amp™ RNA Amplification Kit (Agilent Technologies). Cy3-labeled cRNA from each sample was then hybridized to a custom array covering both the mouse and human transcriptome. The hybridization and wash of the arrays were performed according to the manufacture's protocol and arrays were scanned on an Agilent Microarray scanner. The data were extracted from scanned array images using the Agilent Feature Extraction Software 9.5. […]

human Dll4 = human Dll4 (human, UniProt Q9NR61 27-524, limits assumed); assay: cell-based or functional assay
TOV-112D cells = assay: TOV-112D ovarian xenograft (subcutaneous) tumor growth inhibition; assay type: in vivo, human
Procedure: Ovarian tumor xenograft cells were implanted into humanized Dll4 SCID mice or vendor SCID mice (i.e., SCID mice expressing native murine Dll4). After implantation, mice were treated with REGN421 (anti-human Dll4 antibody, binds to human Dll4), mDll4Ab1 (anti-murine Dll4 antibody, binds to murine Dll4), or a human Fc domain control protein. In one study, mice were treated with VEGF-Trap, mDll4Ab1 or VEGF-Trap plus mDll4Ab1. TOV-112D cells (5×10^6) were implanted subcutaneously into the right flank of humanized Dll4 (n=4) or vendor SCID mice (n=7). Treatment with REGN421 (2.5 mg/kg, 1×/week) or mDll4Ab1 (5 mg/kg, 1×/week) vs. hFc control was initiated one week after tumor cell implantation. Animals were treated for 2 to 3 weeks. A2780 cells (2×10^6) were implanted intraperitoneally into humanized Dll4 or vendor SCID mice (n=4-5). Treatment with REGN421 (2.5 mg/kg, 1×/week) or mDll4Ab1 (5 mg/kg, 1×/week) vs. hFc control was initiated one week after tumor cell implantation. For the A2780 combination study, simultaneous treatment with mDll4Ab1 (5 mg/kg, 1×/week) and VEGF-Trap (10 mg/kg, 2×/week) was initiated one week after tumor cell implantation. A VEGF-Trap single treatment arm was included in this study. Animals bearing A2780 tumors were treated for 4-5 weeks. SKOV-3 cells (5×10^6) in matrigel were implanted subcutaneously and tumor-bearing animals (n=10) were dosed with REGN421 (2.5 mg/kg) and mDll4Ab1 (5 mg/kg) once weekly. OVCAR-3 cells (1×10^7) were implanted subcutaneously into the right flank of vendor SCID mice (n=7). Treatment with mDll4Ab1 (5 mg/kg 1×/week) vs. hFc control was initiated 66 days after tumor cell implantation. Animals were treated for a total of 5 weeks. Tumor growth inhibition (TGI) was measured as detailed above.

Chain of human Dll4 (Q9NR61 27-524 limits assumed): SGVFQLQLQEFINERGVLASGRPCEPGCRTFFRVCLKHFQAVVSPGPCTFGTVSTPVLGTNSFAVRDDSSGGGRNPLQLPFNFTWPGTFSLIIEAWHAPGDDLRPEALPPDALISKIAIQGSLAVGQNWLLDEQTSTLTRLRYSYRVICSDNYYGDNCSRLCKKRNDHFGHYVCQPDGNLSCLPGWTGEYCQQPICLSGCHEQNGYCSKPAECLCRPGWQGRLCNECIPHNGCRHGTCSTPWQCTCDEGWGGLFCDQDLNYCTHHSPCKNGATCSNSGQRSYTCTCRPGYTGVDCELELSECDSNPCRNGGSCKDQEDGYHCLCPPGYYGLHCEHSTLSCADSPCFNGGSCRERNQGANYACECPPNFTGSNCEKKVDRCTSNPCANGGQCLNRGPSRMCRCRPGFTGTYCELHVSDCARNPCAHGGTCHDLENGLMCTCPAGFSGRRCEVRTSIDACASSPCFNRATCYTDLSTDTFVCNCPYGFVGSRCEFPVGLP

B1: REGN421 (antibody, V domains shown)
VH: QVQLVESGGGVVQPGRSLRLSCAASGFTFSSYGMHWVRQAPGKGLEWVSFLWYDGTNKNYVESVKGRFTISRDNSKNMLYLEMNSLRAEDTAVYYCARDHDFRSGYEGWFDPWGQGTLVTVSS
VL: EIVLTQSPATLSLSPGERATLSCRASQSVSSYLAWYQQKPGQAPRLLIYDASNRATGIPARFSGSGSGTDFTLTISSLEPEDFAVYYCQHRSNWPPTFGGGTKVEIK
- Hey1 mRNA levels compared to control hFc-treated mice ([1]; single dose 0.5 mg/kg (lowest dose)): No significant decrease
- Hey1 mRNA levels compared to control hFc-treated mice ([1]; single dose REGN421, starting at 10 hours, most significantly at 72 hours and 7 days post-treatment): decreased
- Hey-1 transcript Post-treatment vs. Pre-treatment ratio (patient 1, 0.25 mg/kg) (human Dll4): 0.52 ratio
- Hey-1 transcript Post-treatment vs. Pre-treatment ratio (patient 2, 0.25 mg/kg) (human Dll4): 0.85 ratio
- Hey-1 transcript Post-treatment vs. Pre-treatment ratio (patient 3, 0.25 mg/kg) (human Dll4): 0.77 ratio
- Hey-1 transcript Post-treatment vs. Pre-treatment ratio (patient 4, 0.25 mg/kg) (human Dll4): 0.51 ratio
- Hey-1 transcript Post-treatment vs. Pre-treatment ratio (patient 5, 0.25 mg/kg) (human Dll4): 0.61 ratio
- Hey-1 transcript Post-treatment vs. Pre-treatment ratio (patient 6, 0.25 mg/kg) (human Dll4): 0.55 ratio
- Hey-1 transcript Post-treatment vs. Pre-treatment ratio (patient 7, 0.25 mg/kg) (human Dll4): 0.75 ratio
- Hey-1 transcript Post-treatment vs. Pre-treatment ratio (patient 8, 0.5 mg/kg) (human Dll4): 0.68 ratio
- Hey-1 transcript Post-treatment vs. Pre-treatment ratio (patient 9, 0.5 mg/kg) (human Dll4): 0.82 ratio
- % TGI (TOV-112D cells; Humanized Dll4 SCID mice, REGN421 2.5 mg/kg 1x/week): 86%
- % TGI (TOV-112D cells; SCID mice (native murine Dll4), REGN421 2.5 mg/kg or mDll4Ab1 5 mg/kg 1x/week): 0%
- anti-tumor activity (in words) (TOV-112D cells; vendor SCID mice): did not exhibit any appreciable anti-tumor activity
